For assay [1], the target named is LCTX-F2 (Lycosa singoriensis). In words: SPR; Biacore 3000; LCTX-F2 amine-coupled to CM5 (2,000 RU); FXIIa, kallikrein, FXa and thrombin as analytes, 0-100 ug/ml in twofold dilutions; 25 C; HBS-EP (10 mM HEPES pH 7.4, 3 mM EDTA, 150 mM NaCl, 0.05% P20); 30 ul/min, 120 s association, 300 s dissociation.
The next assay has as its target thrombin (UniProt P00734).

Broadly, the Kd is the constant that tells how readily two partners part at equilibrium. A high value points to weaker binding.

For the substance activated factor X (enzyme), in assay [1], the Kd came out at 0.18 µM.
Substance LCTX-F2 (peptide) registered an increase of the relative protease activity of FXIIa (chromogenic substrate) at 0.03, 0.3 and 3 µM LCTX-F2: 1.2%, 44.0%, 96.0% with activated factor XII of 96%. The increase of the activity of FXa (chromogenic substrate) at 3 µM LCTX-F2 with activated factor X is 34.8%. The increase of the activity of kallikrein (chromogenic substrate) at 3 µM LCTX-F2 with kallikrein stood at 33.3%. Besides, in the assay with thrombin, the increase of the activity of thrombin (chromogenic substrate) at 3 µM LCTX-F2 came to 36.9%.
activated factor XII (enzyme): the Kd in assay [1] came to 7.2 µM.
Still for that read-out and setting: the value for kallikrein (enzyme) was 4.6 µM; that for “thrombin (from UniProt P00734 364-622; P00734 364-622) (enzyme)” was 0.7 µM.

Values taken from paper PMC7308506.
